Here are results for three substances from publication doi:10.1101/2020.10.22.351346.

Experiment [1] deals with microtubules of pig brain tubulin, taxol-stabilised, surface-immobilised (pig) (UniProt P02550). The experiment can be described thus: TIRF fluorescence imaging of labelled MAP on surface-immobilised MTs.
Experiment [2] shares this target.

full-length human MAP7, sequence (Q14244 whole entry): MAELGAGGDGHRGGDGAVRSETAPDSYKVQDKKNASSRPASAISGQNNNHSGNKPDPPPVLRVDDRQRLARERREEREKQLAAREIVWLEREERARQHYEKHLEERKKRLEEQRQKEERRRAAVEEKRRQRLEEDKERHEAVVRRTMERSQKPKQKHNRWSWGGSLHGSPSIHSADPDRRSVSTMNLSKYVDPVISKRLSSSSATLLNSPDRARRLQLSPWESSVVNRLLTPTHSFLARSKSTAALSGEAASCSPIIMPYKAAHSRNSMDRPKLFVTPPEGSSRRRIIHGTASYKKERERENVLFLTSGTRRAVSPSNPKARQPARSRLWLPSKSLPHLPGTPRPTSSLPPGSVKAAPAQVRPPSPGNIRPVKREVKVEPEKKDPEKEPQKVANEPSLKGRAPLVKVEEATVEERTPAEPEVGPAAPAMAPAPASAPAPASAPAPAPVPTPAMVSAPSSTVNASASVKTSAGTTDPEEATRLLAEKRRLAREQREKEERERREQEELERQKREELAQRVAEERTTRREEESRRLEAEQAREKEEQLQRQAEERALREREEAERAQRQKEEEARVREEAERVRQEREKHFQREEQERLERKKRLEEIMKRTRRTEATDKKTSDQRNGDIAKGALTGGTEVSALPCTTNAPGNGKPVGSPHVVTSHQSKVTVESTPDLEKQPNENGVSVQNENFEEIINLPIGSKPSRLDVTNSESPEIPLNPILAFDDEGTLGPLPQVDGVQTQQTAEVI
MAP7-N (amino acids 1-316), sequence (Q14244 1-316): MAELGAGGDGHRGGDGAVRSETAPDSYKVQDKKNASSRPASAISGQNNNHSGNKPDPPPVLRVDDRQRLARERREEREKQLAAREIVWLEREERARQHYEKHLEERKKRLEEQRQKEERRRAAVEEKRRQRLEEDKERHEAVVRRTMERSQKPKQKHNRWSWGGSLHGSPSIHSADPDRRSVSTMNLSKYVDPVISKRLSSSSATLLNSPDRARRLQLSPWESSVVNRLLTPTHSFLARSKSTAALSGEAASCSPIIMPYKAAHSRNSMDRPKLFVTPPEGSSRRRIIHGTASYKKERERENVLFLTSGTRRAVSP
Tau-MTBD (amino acids 242-367), sequence (P10636 559-684): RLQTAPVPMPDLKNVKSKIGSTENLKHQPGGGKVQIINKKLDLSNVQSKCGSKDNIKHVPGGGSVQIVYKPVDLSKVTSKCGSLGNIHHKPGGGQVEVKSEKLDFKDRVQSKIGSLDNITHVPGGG

For “Tau-MTBD (amino acids 242-367) (from UniProt P10636-8 242-367) (domain or fragment)”, the fold lower affinity than FL tau in experiment [1] turned out to be 100 fold.

In the case of “full-length human MAP7 (from UniProt Q14244-1 1-749) (natural protein)”, in experiment [1], the IC50 was 270 nM and the Kd was 111 nM. In the case of “MAP7-N (amino acids 1-316) (from UniProt Q14244-1 1-316) (domain or fragment)”, in experiment [2], the IC50 of the run frequency of K560 on MTs against the concentration of MAP7-N stood at 17.6 nM.

Usually IC50 stands for the concentration at which inhibition is half-maximal. Low values mean higher potency, high ones lower potency. Usually Kd stands for the concentration at which binding is half-saturated.
